Source: patent US20120231006A1 (Amgen, published 2012)
Substitutions are numbered along the chain they refer to.

B1: mAb 5F7.1 (antibody, human IgG2, lambda)
heavy: QVQLVQSGAEVKKPGASVKVPCKASGYTFTDYYINWVRQAPGQGLEWMGWINPNNGGTNYAQKFQGRVTMTRDTSISTAYMELRRLRSDDTAVYYCARERGGYEDWFDPWGQGTLVTVSSASTKGPSVFPLAPCSRSTSESTAALGCLVKDYFPEPVTVSWNSGALTSGVHTFPAVLQSSGLYSLSSVVTVPSSNFGTQTYTCNVDHKPSNTKVDKTVERKCCVECPPCPAPPVAGPSVFLFPPKPKDTLMISRTPEVTCVVVDVSHEDPEVQFNWYVDGVEVHNAKTKPREEQFNSTFRVVSVLTVVHQDWLNGKEYKCKVSNKGLPAPIEKTISKTKGQPREPQVYTLPPSREEMTKNQVSLTCLVKGFYPSDIAVEWESNGQPENNYKTTPPMLDSDGSFFLYSKLTVDKSRWQQGNVFSCSVMHEALHNHYTQKSLSLSPGK
light: QSVLTQPPSVSGAPGQRVTISCTGSSSNIGAGFDVHWYQQLPVTAPKLLIYGNRNRPSGVPARFSGSKSGTSASLAITGLQAEDEAVYYCQSYDSSLTVFGGGTKLTVLGQPKANPTVTLFPPSSEELQANKATLVCLISDFYPGAVTVAWKADGSPVKAGVETTKPSKQSNNKYAASSYLSLTPEQWKSHRSYSCQVTHEGSTVEKTVAPTECS
notes: fully human IgG2 lambda, Campaign 2
B2: mAb 5A1.1 (antibody, human IgG2)
heavy: B1 heavy
VL: QSVLTQPPSVSGAPGQRVTISCTGSSSNIGAGFDVHWYQQLPVTAPKLLIYGNRNRPSGVPARFSGSKSGTSASLAITGLQAEDEAVYYCQSYDSSLTVFGGGTKLTVL
notes: fully human, Campaign 2; lambda CL-1
B3: mAb 5A4.2 (antibody, human IgG2, lambda, V domains shown)
VH: QVQLVQSGAEVKKPGASVKVSCKASGYTFTDYYMNWVRQAPGQGLEWMGWINPNSGGTKYAQKFQGRVTMTRDTSIRTAYMELSRLRSDDTAVYYCSREYGGNSDWFDPWGQGTLVTVSS
VL: QSVLTQPPSVSGAPGQRVTISCTGSSSNIGAGYDVHWYQQLPGTAPKLLIYGNSNRPSGVPDRFSGSKSGTSASLAITGLQAEDEADYYCQSYDNRLSDSVVIGGGTKLTVQG
notes: as for B1
B4: mAb 5B1.1 (antibody, human IgG2, lambda, V domains shown)
VH: B3 VH with M34I, T58S, K59S, R77S, Y80H, S84I, S97A, Y100R, N103I, S104E
VL: QSVLTQPPSVSGAPGQRVTISCTGSSSNIGAGYDVHWYQQLPGTAPKLLIYGNSNRPSGVPDRFSGSKSGTSASLAITKFQAEDEAVYYCQSYGSGLSGVVFGGGTKLTVLG
notes: fully human IgG2 lambda, Campaign 2; also called mAb 5Bl1.1
B5: mAb 5B5.2 (antibody, human IgG2, lambda, V domains shown)
VH: B3 VH with M34I, K59D, S84N, R87T, S97A, N103Y, S104E
VL: QSVLTQPPSVSGAPGQRVTISCTGSNSNIGAGFDVHWYQQLPGTVPKLLIYGNNNRPSGVPDRFSGSKSGTSASLAITGLQAEDEADYYCQSYDSRLTVFGGGTKLTVLG
notes: fully human IgG2 lambda, Campaign 2; same chains as 5B5.1
B6: mAb 5C1.1 (antibody, human IgG2, lambda, V domains shown)
VH: B3 VH with S97A
VL: B3 VL with T110A
notes: as for B1
B7: mAb 5F2.1 (antibody, human IgG2, lambda, V domains shown)
VH: B3 VH with K59H, R77S, S97A, N103Y
VL: B3 VL with S26R, G43R, G52D, T71S, R96S, V102L, Q112L
notes: as for B1

What was measured:
[1] = biological target: T1, hOrai1-mOrai1 ECL2 chimeric protein (human/mouse chimera, UniProt Q96D31 1-301); test: FACS, 293EBNA; design: concentration or dose not given beside the values
T1 construct: human Orai1 with mouse ECL2; also called Ch
Source text: (§1) FIG. 17A-D illustrates the results of FACS analysis showing binding to the indicated mOrai1-hOrai1 ECL2 chimeric mutants expressed on the surface of HEK-293-EBNA cells. Transfected cells were stained first with recombinant monoclonal antibodies then counter-stained with a secondary phycoerythrin-labeled goat (“Gt”) anti-human (“Hu”) IgG F(ab′)₂ antibody fragment and visualized using FACS.
(§2) Representative results of FACS analysis of binding to the mutant hOrai1-mOrai1 ECL2 chimera described above by exemplary anti-hOrai1 antibodies of the present invention are shown in FIG. 17A-D, Table 10A and Table 10B below. Table 10A (Campaign 1) and Table 10B (Campaign 2) show the gain in binding ability of exemplary monoclonal antibodies to hOrai 1-mOrai 1 ECL2 chimera mutants as determined by FACS.

[2] = biological target: T2, hOrai1-mOrai1 ECL2 (AANVST) protein (human/mouse chimera, UniProt Q96D31 1-301); test: FACS, 293EBNA; design: concentration or dose not given beside the values
T2 construct: also called Ch
Source text: as §1, §2

[3] = biological target: T3, hOrai1-mOrai1 ECL2 (GAA) protein (human/mouse chimera, UniProt Q96D31 1-301); test: FACS, 293EBNA; design: concentration or dose not given beside the values
T3 construct: also called Ch
Source text: as §1, §2

[4] = biological target: T4, hOrai1-mOrai1 ECL2 (VST) protein (human/mouse chimera, UniProt Q96D31 1-301); test: FACS, 293EBNA; design: concentration or dose not given beside the values
T4 construct: also called Ch
Source text: as §1, §2

[5] = biological target: T5, hOrai1-mOrai1 ECL2 (PASGAA) protein (human/mouse chimera, UniProt Q96D31 1-301); test: FACS, 293EBNA; design: concentration or dose not given beside the values
T5 construct: also called Ch
Source text: as §1, §2

[6] = biological target: T6, hOrai1-mOrai1 ECL2 (…) protein (human/mouse chimera, UniProt Q96D31 1-301); test: FACS, 293EBNA; design: concentration or dose not given beside the values
T6 construct: also called Ch
Source text: as §1, §2

human Orai1 [7] = biological target: T7, human Orai1 (human, UniProt Q96D31 1-301); test: cell-based or functional assay
human Orai1 [8] = biological target: T7, human Orai1; test: KinExA, AM1-CHO/hOrai1/hSTIM1-YFP cells
Procedure: Each equilibrium sample set was read in triplicate on the KinExA machine. For low [Ab] equilibrium samples 4 mL was run of each sample in triplicate. For high [Ab] equilibrium samples 300 μL was run of each sample in triplicate. […] For each equilibrium sample the free [Ab] would be detected by first running the coated beads through the flow cell, then after quick wash with the running buffer (1×PBS pH7.4+1% BSA+0.05% Sodium Azide) the equilibrium samples were passed through the beads followed by a quick wash with the running buffer. Then the secondary detection Ab, Gt anti Hu (H+ L) Cy5, was run through the flow cell at 1 μg/mL and 1000 μL per run. The KinExA voltage output signal was then used in KinExA software to calculate the Kd values for each antibody. From the plots at two different initial total [Ab] concentrations the Kd was obtained from curve fitting using n-curve analysis in KinExA Pro software (Sapidyne Instruments Inc., Boise Id.).

T3 sequence (Q96D31 other isoform, or with tags, fused parts or gaps): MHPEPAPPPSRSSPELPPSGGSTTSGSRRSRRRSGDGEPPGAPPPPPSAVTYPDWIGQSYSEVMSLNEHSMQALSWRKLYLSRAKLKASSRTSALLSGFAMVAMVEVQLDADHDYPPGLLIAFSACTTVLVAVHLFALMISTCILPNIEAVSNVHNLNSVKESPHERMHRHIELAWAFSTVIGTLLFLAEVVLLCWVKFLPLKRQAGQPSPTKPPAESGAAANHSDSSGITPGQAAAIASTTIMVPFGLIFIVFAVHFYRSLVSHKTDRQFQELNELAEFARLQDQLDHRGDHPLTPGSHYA
T7 sequence (Q96D31 whole entry): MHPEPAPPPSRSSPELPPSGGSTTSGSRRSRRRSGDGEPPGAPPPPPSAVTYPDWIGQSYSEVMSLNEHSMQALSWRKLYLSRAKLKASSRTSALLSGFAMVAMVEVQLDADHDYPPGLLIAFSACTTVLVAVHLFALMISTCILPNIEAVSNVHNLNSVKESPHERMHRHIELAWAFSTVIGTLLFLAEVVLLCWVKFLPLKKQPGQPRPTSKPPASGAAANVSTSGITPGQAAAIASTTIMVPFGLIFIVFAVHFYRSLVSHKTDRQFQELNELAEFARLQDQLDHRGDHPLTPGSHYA
T4 sequence (Q96D31 other isoform, or with tags, fused parts or gaps): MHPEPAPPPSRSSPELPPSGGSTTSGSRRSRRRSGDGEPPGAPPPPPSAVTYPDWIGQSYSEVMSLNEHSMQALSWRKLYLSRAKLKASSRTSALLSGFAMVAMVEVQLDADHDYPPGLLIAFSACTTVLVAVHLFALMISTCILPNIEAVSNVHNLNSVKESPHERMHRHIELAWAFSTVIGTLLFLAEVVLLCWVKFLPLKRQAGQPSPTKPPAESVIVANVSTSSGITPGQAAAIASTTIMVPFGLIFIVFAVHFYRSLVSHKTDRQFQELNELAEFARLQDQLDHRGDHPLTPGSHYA
T1 sequence (Q96D31 other isoform, or with tags, fused parts or gaps mutant): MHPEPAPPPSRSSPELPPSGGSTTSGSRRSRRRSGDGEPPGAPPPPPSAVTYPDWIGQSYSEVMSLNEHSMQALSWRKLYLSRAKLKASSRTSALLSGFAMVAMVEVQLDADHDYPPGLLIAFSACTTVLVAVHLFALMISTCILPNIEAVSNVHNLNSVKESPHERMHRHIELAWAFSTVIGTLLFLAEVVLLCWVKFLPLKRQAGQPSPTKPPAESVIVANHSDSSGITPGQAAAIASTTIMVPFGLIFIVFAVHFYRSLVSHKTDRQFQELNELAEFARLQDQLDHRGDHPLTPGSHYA
T2 sequence (Q96D31 other isoform, or with tags, fused parts or gaps): as the sequence (Q96D31 other isoform, or with tags, fused parts or gaps mutant) above, with V221A, H224V, D226T counted along it
T6 sequence (Q96D31 other isoform, or with tags, fused parts or gaps): as the sequence (Q96D31 other isoform, or with tags, fused parts or gaps mutant) above, with A216P, E217A, V219G, I220A, V221A, H224V, D226T counted along it
T5 sequence (Q96D31 other isoform, or with tags, fused parts or gaps): as the sequence (Q96D31 other isoform, or with tags, fused parts or gaps mutant) above, with A216P, E217A, V219G, I220A, V221A counted along it

Row | percent of control (POC) of FACS Geo Mean [1] | percent of control (POC) of FACS Geo Mean [2] | percent of control (POC) of FACS Geo Mean [3] | percent of control (POC) of FACS Geo Mean [4] | percent of control (POC) of FACS Geo Mean [5] | percent of control (POC) of FACS Geo Mean [6] | IC50 IFN-γ, whole blood Donor B (human Orai1 [7]) | IC50 IL-2, whole blood Donor A (human Orai1 [7]) | IC50 IL-2, whole blood Donor B (human Orai1 [7]) | Kd (human Orai1 [8]) | IC50 IFN-γ, whole blood Donor A (human Orai1 [7]) | Binder
1 | < 1% | < 1% | < 1% | < 1% | < 1% | < 1% | 11.8 nM | 4.05 nM | 3.49 nM | 0.019 nM |  | B1
2 | < 1% | < 1% | < 1% | < 1% | < 1% | < 1% | 1.66 nM | 11.2 nM | 5.59 nM |  | 8.15 nM | B2
3 | < 1% | < 1% | < 1% | < 1% | < 1% | < 1% | 2.76 nM | 1.88 nM | 1.21 nM |  | 4.83 nM | B3
4 | < 1% | < 1% | < 1% | < 1% | < 1% | < 1% | 10.7 nM | 2.73 nM | 4.45 nM |  | 7.4 nM | B4
5 | < 1% | < 1% | < 1% | < 1% | < 1% | < 1% | 6.58 nM | 1.39 nM | 3.1 nM |  |  | B5
6 | < 1% | < 1% | < 1% | < 1% | < 1% | < 1% | 2.41 nM | 2.18 nM | 1.24 nM |  | 5.42 nM | B6
7 | < 1% | < 1% | < 1% | < 1% | < 1% | < 1% |  | 4.83 nM | 3.79 nM |  |  | B7
